US20190119388A1 (GREEN CROSS, published 2019)
Blank lines part the entries; values can stand above or below the molecule they belong to.

What was measured:
Test in all cases: cell-based or functional assay
[1] = target: epidermal growth factor receptor (EGFR) on gastric cancer cell lines NCI-N87, AGS and NUGC3 (UniProt P00533)
[2] = target: T1, epidermal growth factor receptor (EGFR) on gastric cancer cell lines NCI-N87, AGS and NUGC3 (UniProt P00533 25-1210, limits assumed)
[3] = target: T1, epidermal growth factor receptor (EGFR) …; remark: listed apart in the source
[4] = target: T1, epidermal growth factor receptor (EGFR) …; remark: listed apart in the source
[5] = target: T1, epidermal growth factor receptor (EGFR) …; remark: listed apart in the source
[6] = target: T1, epidermal growth factor receptor (EGFR) …; remark: listed apart in the source
[7] = target: T1, epidermal growth factor receptor (EGFR) …; remark: listed apart in the source

increase of cell invasion (NUGC3, HB-EGF 10 ng/ml) [1]: 2.3 fold | increase of cell invasion (NUGC3, HB-EGF 20 ng/ml) [1]: 3.5 fold | increase of cell invasion (NUGC3, HB-EGF 50 ng/ml) [1]: 4.8 fold | increase of invasion against control (AGS, HB-EGF 10 ng/ml) [1]: 4.1 fold | increase of invasion against control (AGS, HB-EGF 20 ng/ml) [1]: 4.5 fold | increase of invasion against control (AGS, HB-EGF 50 ng/ml) [1]: 3.9 fold
Molecule: HB-EGF (heparin binding-EGF-like growth factor) (from UniProt Q99075 63-148) (ligand)

invaded cells relative to TGF-α alone, % of OD (AGS, TGF-α 20 ng/ml, antibody 1 µg/ml), Average (%) [2]: 44.1% | invaded cells relative to TGF-α alone, % of OD (AGS, TGF-α 20 ng/ml, antibody 1 µg/ml), set 1-1 [2]: 45.1% | invaded cells relative to TGF-α alone, % of OD (AGS, TGF-α 20 ng/ml, antibody 1 µg/ml), set 1-2 [2]: 41.6% | invaded cells relative to TGF-α alone, % of OD (AGS, TGF-α 20 ng/ml, antibody 1 µg/ml), set 2-1 [2]: 31.2% | invaded cells relative to TGF-α alone, % of OD (AGS, TGF-α 20 ng/ml, antibody 1 µg/ml), set 2-2 [2]: 33.8% | invaded cells relative to TGF-α alone, % of OD (AGS, TGF-α 20 ng/ml, antibody 1 µg/ml), set 3-1 [2]: 57.9% | invaded cells relative to TGF-α alone, % of OD (AGS, TGF-α 20 ng/ml, antibody 1 µg/ml), set 3-2 [2]: 54.8% | invaded cells relative to HB-EGF alone, % of OD (AGS, HB-EGF 20 ng/ml, antibody 1 µg/ml), Average (%) [3]: 49.6% | invaded cells relative to HB-EGF alone, % of OD (AGS, HB-EGF 20 ng/ml, antibody 1 µg/ml), set 1-1 [3]: 50.6% | invaded cells relative to HB-EGF alone, % of OD (AGS, HB-EGF 20 ng/ml, antibody 1 µg/ml), set 1-2 [3]: 56.8% | invaded cells relative to HB-EGF alone, % of OD (AGS, HB-EGF 20 ng/ml, antibody 1 µg/ml), set 2-1 [3]: 57.7% | invaded cells relative to HB-EGF alone, % of OD (AGS, HB-EGF 20 ng/ml, antibody 1 µg/ml), set 2-2 [3]: 64.2% | invaded cells relative to HB-EGF alone, % of OD (AGS, HB-EGF 20 ng/ml, antibody 1 µg/ml), set 3-1 [3]: 33.3% | invaded cells relative to HB-EGF alone, % of OD (AGS, HB-EGF 20 ng/ml, antibody 1 µg/ml), set 3-2 [3]: 34.9% | invaded cells relative to AREG alone, % of OD (NUGC3, AREG 500 ng/ml, antibody 1 µg/ml), Average (%) [4]: 54.8% | invaded cells relative to AREG alone, % of OD (NUGC3, AREG 500 ng/ml, antibody 1 µg/ml), set 1-1 [4]: 40.2% | invaded cells relative to AREG alone, % of OD (NUGC3, AREG 500 ng/ml, antibody 1 µg/ml), set 1-2 [4]: 50.7% | invaded cells relative to AREG alone, % of OD (NUGC3, AREG 500 ng/ml, antibody 1 µg/ml), set 2-1 [4]: 59.8% | invaded cells relative to AREG alone, % of OD (NUGC3, AREG 500 ng/ml, antibody 1 µg/ml), set 2-2 [4]: 59.6% | invaded cells relative to AREG alone, % of OD (NUGC3, AREG 500 ng/ml, antibody 1 µg/ml), set 3-1 [4]: 62.4% | invaded cells relative to AREG alone, % of OD (NUGC3, AREG 500 ng/ml, antibody 1 µg/ml), set 3-2 [4]: 56.1% | invaded cells relative to AREG alone, % of OD (AGS, AREG 1,000 ng/ml, antibody 1 µg/ml), Average (%) [5]: 55.4% | invaded cells relative to AREG alone, % of OD (AGS, AREG 1,000 ng/ml, antibody 1 µg/ml), set 1-1 [5]: 55.3% | invaded cells relative to AREG alone, % of OD (AGS, AREG 1,000 ng/ml, antibody 1 µg/ml), set 1-2 [5]: 61.3% | invaded cells relative to AREG alone, % of OD (AGS, AREG 1,000 ng/ml, antibody 1 µg/ml), set 2-1 [5]: 51.8% | invaded cells relative to AREG alone, % of OD (AGS, AREG 1,000 ng/ml, antibody 1 µg/ml), set 2-2 [5]: 53.1% | invaded cells relative to TGF-α alone, % of OD (NUGC3, TGF-α 50 ng/ml, antibody 1 µg/ml), Average (%) [6]: 32.5% | invaded cells relative to TGF-α alone, % of OD (NUGC3, TGF-α 50 ng/ml, antibody 1 µg/ml), set 1-1 [6]: 31.5% | invaded cells relative to TGF-α alone, % of OD (NUGC3, TGF-α 50 ng/ml, antibody 1 µg/ml), set 1-2 [6]: 27.3% | invaded cells relative to TGF-α alone, % of OD (NUGC3, TGF-α 50 ng/ml, antibody 1 µg/ml), set 2-1 [6]: 31.4% | invaded cells relative to TGF-α alone, % of OD (NUGC3, TGF-α 50 ng/ml, antibody 1 µg/ml), set 2-2 [6]: 30% | invaded cells relative to TGF-α alone, % of OD (NUGC3, TGF-α 50 ng/ml, antibody 1 µg/ml), set 3-1 [6]: 36.4% | invaded cells relative to TGF-α alone, % of OD (NUGC3, TGF-α 50 ng/ml, antibody 1 µg/ml), set 3-2 [6]: 38.3% | invaded cells relative to HB-EGF alone, % of OD (NUGC3, HB-EGF 50 ng/ml, antibody 1 µg/ml), Average (%) [7]: 39.2% | invaded cells relative to HB-EGF alone, % of OD (NUGC3, HB-EGF 50 ng/ml, antibody 1 µg/ml), set 1-1 [7]: 18.8% | invaded cells relative to HB-EGF alone, % of OD (NUGC3, HB-EGF 50 ng/ml, antibody 1 µg/ml), set 1-2 [7]: 21% | invaded cells relative to HB-EGF alone, % of OD (NUGC3, HB-EGF 50 ng/ml, antibody 1 µg/ml), set 2-1 [7]: 57.7% | invaded cells relative to HB-EGF alone, % of OD (NUGC3, HB-EGF 50 ng/ml, antibody 1 µg/ml), set 2-2 [7]: 64.2% | invaded cells relative to HB-EGF alone, % of OD (NUGC3, HB-EGF 50 ng/ml, antibody 1 µg/ml), set 3-1 [7]: 41.7% | invaded cells relative to HB-EGF alone, % of OD (NUGC3, HB-EGF 50 ng/ml, antibody 1 µg/ml), set 3-2 [7]: 31.9%
B1: GC1118 (antibody, human IgG1, kappa, V domains shown)
VH: EVQLVESGGGVVQPGGSLRLSCAASGFTFSDYDMSWIRQAPGKGLEWVSGILGGSERSYYRDSVKGRFTISRDNSRKTLYLQMNSLRAEDTAVYYCARHGSPGYTLYAWDYWGQGTTVTVSS
VL: DIVMTQTPLSLPVTPGEPASISCRSNQDLTHSNGNTYLEWYLQKPGQSPRLLIYKVSNRFSGVPDRFSGSGAGTDFTLRISRVEAEDVGVYYCMQGTHWPWTFGQGTKVDIKR

Continued, molecule first:

Molecule: AREG (amphiregulin) (from UniProt P15514 101-198) (ligand)
increase of cell invasion (NUGC3, AREG 200 ng/ml) [1]: 1.3 fold | increase of cell invasion (NUGC3, AREG 500 ng/ml) [1]: 1.5 fold

Molecule: TGF-α (transforming growth factor-α) (from UniProt P01135 40-89) (ligand)
increase of cell invasion (NUGC3, TGF-α 10 ng/ml) [1]: 1.7 fold | increase of cell invasion (NUGC3, TGF-α 20 ng/ml) [1]: 1.9 fold | increase of cell invasion (NUGC3, TGF-α 50 ng/ml) [1]: 1.9 fold | increase of invasion against control (AGS, TGF-α 10 ng/ml) [1]: 1.8 fold | increase of invasion against control (AGS, TGF-α 20 ng/ml) [1]: 1.8 fold | increase of invasion against control (AGS, TGF-α 50 ng/ml) [1]: 1.9 fold
